These results are taken from patent US20100215631A1, “ANTI-INFLAMMATORY COMPOSITION COMPRISING GLYCINE AND LACTOFERRIN AND THE USE THEREOF” (priority 2006, published 2010).

What all share (format): in vivo
Assay [1] concerns Balb/C mice. Kind of assay: Zymosan-induced ear swelling in an inflammatory mouse model (Example 1). To be noted: daily gavage 0.1 mg lactoferrin and/or 50 mg glycine, versus non-supplemented mice. The protocol:
Balb/C mice (8 weeks of age, Charles River, Maastricht, The Netherlands) were randomly assigned two control and three test groups and supplemented daily for three days with 0.1 mg lactoferrin (DMV, Veghel, The Netherlands), 50 mg glycine (Sigma, Zwijndrecht, The Netherlands) or a combination of both components (test groups 3, 4 and 5 respectively) or vehicle (control groups 1 and 2) was administered by gavage. At day two of the supplementation ear thickness was measured using a micrometer (Mitutoyo Digimatic, Veenendaal, The Netherlands) Subsequently 25 μl 0.5% zymosan (Sigma) in PBS (group 2-5) or vehicle (group 1) was injected subcutaneously in both ears. Ear thickness was measured 3, 6 and 24 hours (example 1) after injection after which the animals were sacrificed.
In mice injected in the ear with zymosan, lactoferrin (LF) and glycine (Gly) supplemented mice show a highest decrease in ear swelling when compared to non-supplemented mice, see Table 1. A clear synergistic effect of LF and Gly is observed.

The next assay concerns TNF-α producing cells. Put plainly: Ex-vivo ELISpot of TNF-α producing spleen cells from supplemented mice with zymosan-induced ear inflammation (Example 2). The note with it: 1 μg/ml LPS, after three days of oral supplementation. The protocol: The spleen was removed and pushed through a cell strainer. Red blood cell lysis was performed in 5 ml of could lysis buffer (4.15 g NH4Cl, 0.5 g KHCO3 and 18.6 mg Na2EDTA in 1 liter water at pH 7,3) for 5 minutes. Cells were washed twice in could RPMI (Invitrogen, Merelbeke, Belgium) and after centrifugation diluted to a concentration of 1.10^7 cells/ml. TNF-α producing cells were detected by ELISpot assay in the absence or presence of 1 μg/ml lipopolysaccharide (Sigma) (example 2).
Spleen cells were collected from mice with a zymosan-induced inflammation in the ear after three days of oral supplementation with water (=control), lactoferrin (LF), glycine or a combination of LF and glycine. The number of TNF-α producing cells was determined using an ELISpot assay. LF and glycine inhibit the LPS stimulated number of TNF producing cells by 92% and 97% respectively (back to not zymosan treated control levels). The combination of glycine and lactoferrin inhibited the number of TNF-α positive cells 50% below the […] injected control. This unexpected high rate of inhibition makes the combination of glycine with lactoferrin an excellent choice for the treatment of inflammatory diseases.

Assay [2] deals with Balb/C mice. Put plainly: Dose response of lactoferrin in zymosan-induced ear swelling mouse model (Example 3).

B1: lactoferrin (protein, UniProt P24627 20-708, looked up)
Lactotransferrin: APRKNVRWCTISQPEWFKCRRWQWRMKKLGAPSITCVRRAFALECIRAIAEKKADAVTLDGGMVFEAGRDPYKLRPVAAEIYGTKESPQTHYYAVAVVKKGSNFQLDQLQGRKSCHTGLGRSAGWIIPMGILRPYLSWTESLEPLQGAVAKFFSASCVPCIDRQAYPNLCQLCKGEGENQCACSSREPYFGYSGAFKCLQDGAGDVAFVKETTVFENLPEKADRDQYELLCLNNSRAPVDAFKECHLAQVPSHAVVARSVDGKEDLIWKLLSKAQEKFGKNKSRSFQLFGSPPGQRDLLFKDSALGFLRIPSKVDSALYLGSRYLTTLKNLRETAEEVKARYTRVVWCAVGPEEQKKCQQWSQQSGQNVTCATASTTDDCIVLVLKGEADALNLDGGYIYTAGKCGLVPVLAENRKSSKHSSLDCVLRPTEGYLAVAVVKKANEGLTWNSLKDKKSCHTAVDRTAGWNIPMGLIVNQTGSCAFDEFFSQSCAPGADPKSRLCALCAGDDQGLDKCVPNSKEKYYGYTGAFRCLAEDVGDVAFVKNDTVWENTNGESTADWAKNLNREDFRLLCLDGTRKPVTEAQSCHLAVAPNHAVVSRSDRAAHVKQVLLHQQALFGKNGKNCPDKFCLFKSETKNLLFNDNTECLAKLGGRPTYEEYLGTEYVTAIANLKKCSTSPLLEACAFLTR
notes: globular multifunctional protein of the transferrin family (DMV, Veghel)
On to B1, for which the results for the “Decrease in ear swelling” value in the assay on Balb/C mice [1] (3 hrs after zymosan injection in ears) and in the assay with Balb/C mice [1] (6 hrs after zymosan injection in ears) were 39 ± 12 and 53 ± 17, respectively. The “Inhibition of the LPS stimulated number of TNF producing cells” value in the assay with TNF-α producing cells stood at 92%. For the same molecule, the swelling is recorded as 78 in the assay with Balb/C mice [2] (0.1 mg LF daily by gavage, time 1 hr); 108 with Balb/C mice [2] (0.1 mg LF daily by gavage, time 2 hr); 109 with Balb/C mice [2] (0.1 mg LF daily by gavage, time 4 hr); 73 in the assay on Balb/C mice [2] (1 mg LF daily by gavage, time 1 hr); 105 with Balb/C mice [2] (1 mg LF daily by gavage, time 2 hr); 121 in the assay on Balb/C mice [2] (1 mg LF daily by gavage, time 4 hr). Also, the swelling was 99 with Balb/C mice [2] (5 mg LF daily by gavage, time 1 hr); 153 in the assay on Balb/C mice [2] (5 mg LF daily by gavage, time 2 hr); 204 in the assay with Balb/C mice [2] (5 mg LF daily by gavage, time 4 hr). Besides, the Optimal dose result in the assay on Balb/C mice [2] (mouse, daily gavage, higher than 0) was “less than 5 mg”.
